The supplement of paper PMC9112550, “Optimization of the antimicrobial peptide Bac7 by deep mutational scanning” (BMC Biology, 2022)

system: Escherichia coli TOP10; assay: shrunken log2 fold change of peptide-encoding DNA abundance (4.5 h post-induction vs induction); higher = less antimicrobial activity (less host growth inhibition); settings: time post-induction: 4.5 h; library: site-saturation at positions 5, 18, 19, 20
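Further: peptides expressed intracellularly from a pBAD plasmid library in pooled LB shake-flask culture, induced with 0.3% L-arabinose, DNA abundance read by NGS, three biological replicates, DESeq2 with apeglm shrinkage.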

Sequence | shrunken log2 fold change
RRIRARPPRLPRPRPRPVPNPRP | -0.0263
RRIRPRPPRLPRPRPRPLDSPRP | -0.0664
RRIRCRPPRLPRPRPRPKGTPRP | 0.0259
RRIRSRPPRLPRPRPRPCWVPRP | -0.272
RRIRRRPPRLPRPRPRPMTEPRP | 0.0575
RRIRSRPPRLPRPRPRPKTIPRP | -0.174
RRIRKRPPRLPRPRPRPNPGPRP | 0.155
RRIRIRPPRLPRPRPRPHQEPRP | -0.01
RRIRTRPPRLPRPRPRPKAYPRP | 0.0161
RRIRDRPPRLPRPRPRPVWRPRP | 0.0883
RRIRTRPPRLPRPRPRPFHFPRP | -0.303
RRIRYRPPRLPRPRPRPDCGPRP | -0.398
RRIRYRPPRLPRPRPRPQACPRP | 0.00187
RRIRYRPPRLPRPRPRPMSIPRP | -0.563
RRIRSRPPRLPRPRPRPTFTPRP | -0.269
RRIRYRPPRLPRPRPRPNHLPRP | -1.32
RRIRDRPPRLPRPRPRPISPPRP | -0.036
RRIRFRPPRLPRPRPRPYPVPRP | -0.115
RRIRWRPPRLPRPRPRPMAEPRP | 0.203
RRIRTRPPRLPRPRPRPWQQPRP | -0.0121
RRIRQRPPRLPRPRPRPSALPRP | -0.0016
RRIRSRPPRLPRPRPRPLKSPRP | 0.0254
RRIRKRPPRLPRPRPRPDQAPRP | -0.029
RRIRTRPPRLPRPRPRPYIDPRP | -0.132
RRIRSRPPRLPRPRPRPEIIPRP | -0.0448

Sequence | shrunken log2 fold change
RRIRVRPPRLPRPRPRPNVMPRP | -0.173
RRIRIRPPRLPRPRPRPVMVPRP | -0.066
RRIRKRPPRLPRPRPRPADPPRP | -0.0715
RRIRVRPPRLPRPRPRPTCGPRP | 0.0207
RRIRARPPRLPRPRPRPGFTPRP | 0.204
RRIRWRPPRLPRPRPRPLPGPRP | 0.215
RRIRTRPPRLPRPRPRPPRIPRP | 0.27
RRIRYRPPRLPRPRPRPVTEPRP | -0.134
RRIRMRPPRLPRPRPRPSCKPRP | 0.0347
RRIRYRPPRLPRPRPRPLSFPRP | -1.04
RRIRSRPPRLPRPRPRPPLCPRP | 0.357
RRIRRRPPRLPRPRPRPWLLPRP | 0.0822
RRIRWRPPRLPRPRPRPPKKPRP | 1.27
RRIRIRPPRLPRPRPRPLECPRP | 0.0303
RRIRTRPPRLPRPRPRPSAKPRP | 0.227
RRIRLRPPRLPRPRPRPKALPRP | -0.224
RRIRVRPPRLPRPRPRPTTPPRP | 0.347
RRIRDRPPRLPRPRPRPTAHPRP | 0.547
RRIRRRPPRLPRPRPRPTDEPRP | 0.355
RRIRWRPPRLPRPRPRPYERPRP | -0.0653
RRIRMRPPRLPRPRPRPGWKPRP | 0.0184
RRIRTRPPRLPRPRPRPCHHPRP | -0.0688
RRIRDRPPRLPRPRPRPMEEPRP | -0.00277
RRIRMRPPRLPRPRPRPTWEPRP | 0.312
RRIRQRPPRLPRPRPRPCNCPRP | -0.0201

Sequence | shrunken log2 fold change
RRIRRRPPRLPRPRPRPVATPRP | 1.15
RRIRGRPPRLPRPRPRPYPKPRP | 0.161
RRIRKRPPRLPRPRPRPCFNPRP | -0.0824
RRIRRRPPRLPRPRPRPTFHPRP | 0.0529
RRIRLRPPRLPRPRPRPNDGPRP | -0.127
RRIRDRPPRLPRPRPRPCYYPRP | -0.0165
RRIRPRPPRLPRPRPRPWYSPRP | -0.22
RRIRMRPPRLPRPRPRPRLCPRP | 1.66
RRIRVRPPRLPRPRPRPIKLPRP | -0.486
RRIRRRPPRLPRPRPRPKSIPRP | -0.0792
RRIRKRPPRLPRPRPRPPWAPRP | 0.496
RRIRGRPPRLPRPRPRPPMMPRP | 0.626
RRIRLRPPRLPRPRPRPWSLPRP | -0.195
RRIRRRPPRLPRPRPRPQNLPRP | -0.276
RRIRQRPPRLPRPRPRPDFVPRP | 0.0112
RRIRSRPPRLPRPRPRPPLLPRP | 0.0398
RRIRMRPPRLPRPRPRPPCLPRP | -0.157
RRIRKRPPRLPRPRPRPYCGPRP | 0.0176
RRIRIRPPRLPRPRPRPFIAPRP | -0.719
RRIRGRPPRLPRPRPRPKPMPRP | 0.419
RRIRYRPPRLPRPRPRPHCPPRP | -0.0417
RRIRIRPPRLPRPRPRPELCPRP | 0.0211
RRIRDRPPRLPRPRPRPTFCPRP | 0.164
RRIRVRPPRLPRPRPRPISCPRP | 0.0771
RRIRIRPPRLPRPRPRPIWAPRP | -0.234

Sequence | shrunken log2 fold change
RRIRMRPPRLPRPRPRPCVDPRP | 0.0636
RRIRCRPPRLPRPRPRPWLPPRP | -0.122
RRIRMRPPRLPRPRPRPEFPPRP | 0.745
RRIRHRPPRLPRPRPRPWLKPRP | -0.185
RRIRQRPPRLPRPRPRPWYCPRP | -1.83
RRIRKRPPRLPRPRPRPTTCPRP | 0.273
RRIRKRPPRLPRPRPRPVIKPRP | 0.0845
RRIRVRPPRLPRPRPRPRECPRP | 0.175
RRIRQRPPRLPRPRPRPQIHPRP | -0.246
RRIRDRPPRLPRPRPRPNRFPRP | -0.00648
RRIRPRPPRLPRPRPRPVTIPRP | -0.344
RRIRIRPPRLPRPRPRPPQWPRP | 0.205
RRIRERPPRLPRPRPRPEGYPRP | -0.00062
RRIRTRPPRLPRPRPRPAQYPRP | 0.105
RRIRDRPPRLPRPRPRPHHCPRP | -0.126
RRIRGRPPRLPRPRPRPLCTPRP | 2.26
RRIRERPPRLPRPRPRPNQTPRP | -0.13
RRIRTRPPRLPRPRPRPHPAPRP | 0.201
RRIRPRPPRLPRPRPRPSFFPRP | 0.19
RRIRVRPPRLPRPRPRPSCKPRP | -0.207
RRIRERPPRLPRPRPRPDTEPRP | -0.0215
RRIRERPPRLPRPRPRPHMYPRP | -0.577
RRIRTRPPRLPRPRPRPLSIPRP | -0.487
RRIRFRPPRLPRPRPRPWDLPRP | 2.08
RRIRVRPPRLPRPRPRPDDTPRP | -0.00824

Sequence | shrunken log2 fold change
RRIRHRPPRLPRPRPRPFNTPRP | -1.18
RRIRIRPPRLPRPRPRPPYWPRP | -0.00803
RRIRNRPPRLPRPRPRPRMRPRP | 0.867
RRIRCRPPRLPRPRPRPEVCPRP | 0.0143
RRIRFRPPRLPRPRPRPPGIPRP | 0.151
RRIRMRPPRLPRPRPRPSSCPRP | 0.112
RRIRHRPPRLPRPRPRPYPCPRP | -0.152
RRIRTRPPRLPRPRPRPCMDPRP | -0.459
RRIRKRPPRLPRPRPRPCHYPRP | -0.117
RRIRARPPRLPRPRPRPMTTPRP | 0.505
RRIRYRPPRLPRPRPRPHEIPRP | -0.194
RRIRKRPPRLPRPRPRPCRWPRP | -0.0708
RRIRRRPPRLPRPRPRPHDYPRP | -0.0628
RRIRQRPPRLPRPRPRPQVYPRP | -0.0731
RRIRVRPPRLPRPRPRPCGGPRP | -0.0341
RRIRARPPRLPRPRPRPWSNPRP | 0.0711
RRIRLRPPRLPRPRPRPPTNPRP | 0.177
RRIRARPPRLPRPRPRPCHDPRP | -0.00479
RRIRFRPPRLPRPRPRPEEVPRP | 0.0815
RRIRQRPPRLPRPRPRPSCRPRP | -0.28
RRIRIRPPRLPRPRPRPMVGPRP | 0.105
RRIRERPPRLPRPRPRPRILPRP | -0.202
RRIRNRPPRLPRPRPRPWMHPRP | -0.228
RRIRYRPPRLPRPRPRPTQTPRP | 0.0249
RRIRPRPPRLPRPRPRPPEYPRP | -0.558

Sequence | shrunken log2 fold change
RRIRWRPPRLPRPRPRPCQPPRP | -0.118
RRIRPRPPRLPRPRPRPMNKPRP | -0.551
RRIRCRPPRLPRPRPRPNCFPRP | -0.0988
RRIRDRPPRLPRPRPRPRGGPRP | 0.726
RRIRVRPPRLPRPRPRPSDNPRP | -0.878
RRIRGRPPRLPRPRPRPGNGPRP | 0.434
RRIRGRPPRLPRPRPRPNYVPRP | 0.216
RRIRERPPRLPRPRPRPRCFPRP | -0.128
RRIRLRPPRLPRPRPRPNGTPRP | -0.221
RRIRFRPPRLPRPRPRPSHGPRP | -0.391
RRIRWRPPRLPRPRPRPTVGPRP | 0.468
RRIRFRPPRLPRPRPRPGNVPRP | 0.0145
RRIRCRPPRLPRPRPRPLRKPRP | 0.734
RRIRWRPPRLPRPRPRPDGMPRP | 0.0134
RRIRHRPPRLPRPRPRPPKAPRP | 0.0427
RRIRWRPPRLPRPRPRPTRCPRP | 0.0338
RRIRLRPPRLPRPRPRPFWLPRP | 0.0573
RRIRIRPPRLPRPRPRPMNSPRP | -0.191
RRIRLRPPRLPRPRPRPVRHPRP | 0.19
RRIRGRPPRLPRPRPRPHKLPRP | 0.213
RRIRFRPPRLPRPRPRPLKIPRP | -0.24
RRIRRRPPRLPRPRPRPTRYPRP | 0.337
RRIRDRPPRLPRPRPRPWCEPRP | -0.093
RRIRFRPPRLPRPRPRPYVQPRP | -0.0133
RRIRPRPPRLPRPRPRPDVEPRP | -0.0392
